Assay results from publication PMC7806871 (Cell Death Discovery, 2021).

Biological target: T1, Tuberculosis necrotizing toxin (TNT), C-terminal domain of CpnT, recombinant TNT-His6x (M. tuberculosis, UniProt O05442 648-846)
T1 construct: not shown: His6, C-terminal, kept
T1 sequence: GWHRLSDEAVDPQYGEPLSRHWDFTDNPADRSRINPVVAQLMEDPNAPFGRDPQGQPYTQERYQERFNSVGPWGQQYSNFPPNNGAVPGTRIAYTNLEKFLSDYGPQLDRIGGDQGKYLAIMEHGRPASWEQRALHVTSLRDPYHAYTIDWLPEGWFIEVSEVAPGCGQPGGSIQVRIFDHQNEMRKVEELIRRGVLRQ
Experiment: ELISA
Details: both partners purified

B1: Immunity factor for TNT (IFT), recombinant IFT-His6x (natural protein)
chain: TIGVDLSTDLQDWIRLSGMNMIQGSETNDGRTILWNKGGEVRYFIDRLAGWYVITSSDRMSREGYEFAAASMSVIEKYLYGYFGGSVRSERELPAIRAPFQPEELMPEYSIGTMTFAGRQRDTLIDSSGTVVAITAADRLVELSHYLDVSVNVIKDSFLDSEGKPLFTLWKDYKG
notes: not shown: His6, C-terminal, kept
binding result: binds
